Assays:
[1] = molecular target: TRF1 TRFH (TRF homology) domain; assay: crystal structure; purified TRF1 TRFH-PinX1TBM complex, 2.7 Å
[2] = molecular target: T1, 3×Flag-TERT (purified human telomerase) (human, UniProt O14746 1-1132); assay: pull-down; GST-PinX1-C (132-328) captured by 3×Flag-TERT (MBP-3×Flag as control), Western blot; conditions: both partners purified
T1 construct: TERT, the protein subunit of human telomerase; Purified as telomerase; also called purified telomerase; source: human telomerase, purified
T1 sequence (O14746 whole entry): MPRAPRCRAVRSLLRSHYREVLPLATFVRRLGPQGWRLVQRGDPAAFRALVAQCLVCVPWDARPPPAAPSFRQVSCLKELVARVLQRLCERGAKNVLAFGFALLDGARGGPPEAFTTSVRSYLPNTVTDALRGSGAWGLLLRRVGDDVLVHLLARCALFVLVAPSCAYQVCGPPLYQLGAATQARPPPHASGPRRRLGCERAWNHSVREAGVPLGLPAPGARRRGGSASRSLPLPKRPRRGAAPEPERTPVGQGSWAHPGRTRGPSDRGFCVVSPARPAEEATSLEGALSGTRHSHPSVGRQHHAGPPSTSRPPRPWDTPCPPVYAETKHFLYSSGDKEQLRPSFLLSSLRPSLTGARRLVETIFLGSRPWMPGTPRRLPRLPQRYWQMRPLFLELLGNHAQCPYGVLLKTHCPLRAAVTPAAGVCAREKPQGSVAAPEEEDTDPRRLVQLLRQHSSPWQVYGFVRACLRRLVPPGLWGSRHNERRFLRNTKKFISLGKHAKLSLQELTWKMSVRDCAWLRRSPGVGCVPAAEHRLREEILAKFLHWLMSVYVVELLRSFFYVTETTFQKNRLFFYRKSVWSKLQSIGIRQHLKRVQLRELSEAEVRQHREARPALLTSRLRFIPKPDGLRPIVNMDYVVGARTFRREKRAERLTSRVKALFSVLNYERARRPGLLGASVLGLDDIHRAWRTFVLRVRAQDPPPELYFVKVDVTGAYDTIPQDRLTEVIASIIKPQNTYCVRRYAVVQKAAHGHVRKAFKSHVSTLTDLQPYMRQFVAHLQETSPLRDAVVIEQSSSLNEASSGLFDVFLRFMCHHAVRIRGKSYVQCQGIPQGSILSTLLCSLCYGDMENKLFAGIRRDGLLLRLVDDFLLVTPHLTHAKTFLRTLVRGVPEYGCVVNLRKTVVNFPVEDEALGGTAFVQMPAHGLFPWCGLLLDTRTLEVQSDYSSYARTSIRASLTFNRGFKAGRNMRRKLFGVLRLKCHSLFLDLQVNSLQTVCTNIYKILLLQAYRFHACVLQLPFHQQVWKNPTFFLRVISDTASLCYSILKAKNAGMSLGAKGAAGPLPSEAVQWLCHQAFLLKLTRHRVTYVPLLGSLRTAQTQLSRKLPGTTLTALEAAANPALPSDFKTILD

[3] = molecular target: T1, 3×Flag-TERT (purified human telomerase); assay: pull-down; 3×Flag-TERT (purified telomerase) captured by GST-PinX1 constructs (GST as control), silver staining and Western blot; conditions: both partners purified

TRF1 TRFH (TRF homology) domain (domain or fragment)
stoichiometry N [1]: 2

B1: GST-PinX1(132-328) (domain or fragment, UniProt Q96BK5 132-328, looked up)
chain: GKDLSSRSKTDLDCIFGKRQSKKTPEGDASPSTPEENETTTTSAFTIQEYFAKRMAALKNKPQVPVPGSDISETQVERKRGKKRNKEATGKDVESYLQPKAKRHTEGKPERAEAQERVAKKKSAPAEEQLRGPCWDQSSKASAQDAGDHVQPPEGRDFTLKPKKRRGKKKLQKPVEIAEDATLEETLVKKKKKKDSK
notes: PinX1 residues 132-328; also called GST-PinX1-C (132–328); CTD (C-terminal domain)
binding result [2]: binds

B2: GST-PinX1(203-328) (domain or fragment, UniProt Q96BK5 203-328, looked up)
chain: SETQVERKRGKKRNKEATGKDVESYLQPKAKRHTEGKPERAEAQERVAKKKSAPAEEQLRGPCWDQSSKASAQDAGDHVQPPEGRDFTLKPKKRRGKKKLQKPVEIAEDATLEETLVKKKKKKDSK
notes: PinX1 residues 203-328 (TID)
binding result [3]: binds

Source: article PMC11615109, “PinX1 suppresses cancer progression by inhibiting telomerase activity in cervical squamous cell carcinoma and endocervical adenocarcinoma” (Genes & Diseases, 2024)
